Reference: the supplement of paper PMC9112550, “Optimization of the antimicrobial peptide Bac7 by deep mutational scanning” (BMC Biology, 2022)

These sequences were tested on Escherichia coli TOP10 (assay: shrunken log2 fold change of peptide-encoding DNA abundance (4.5 h post-induction vs induction); higher = less antimicrobial activity (less host growth inhibition)). Conditions: time post-induction: 4.5 h; library: site-saturation at positions 5, 18, 19, 20.
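Also: peptides expressed intracellularly from a pBAD plasmid library in pooled LB shake-flask culture, induced with 0.3% L-arabinose, DNA abundance read by NGS, three biological replicates, DESeq2 with apeglm shrinkage.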

Sequence	shrunken log2 fold change
RRIRTRPPRLPRPRPRPIKSPRP	-0.61
RRIRERPPRLPRPRPRPIRDPRP	0.0201
RRIRMRPPRLPRPRPRPNSFPRP	-0.298
RRIRFRPPRLPRPRPRPEPYPRP	0.0129
RRIRCRPPRLPRPRPRPQPFPRP	0.00986
RRIRNRPPRLPRPRPRPMKGPRP	-0.0787
RRIRLRPPRLPRPRPRPDTNPRP	-0.103
RRIRMRPPRLPRPRPRPLWYPRP	0.205
RRIRQRPPRLPRPRPRPERTPRP	0.124
RRIRDRPPRLPRPRPRPYVPPRP	-0.604
RRIRVRPPRLPRPRPRPCDMPRP	-0.448
RRIRFRPPRLPRPRPRPSTEPRP	-0.112
RRIRFRPPRLPRPRPRPTSEPRP	0.0114
RRIRVRPPRLPRPRPRPEQKPRP	-0.0196
RRIRFRPPRLPRPRPRPMIQPRP	-0.0594
RRIRYRPPRLPRPRPRPLECPRP	-0.183
RRIRCRPPRLPRPRPRPRCQPRP	-0.146
RRIRNRPPRLPRPRPRPGHIPRP	-0.433
RRIRNRPPRLPRPRPRPFPYPRP	-0.4
RRIRRRPPRLPRPRPRPSWRPRP	0.355
RRIRGRPPRLPRPRPRPSERPRP	0.278
RRIRNRPPRLPRPRPRPCTWPRP	0.0117
RRIRFRPPRLPRPRPRPQWRPRP	1.49
RRIRMRPPRLPRPRPRPCDFPRP	-0.121
RRIRQRPPRLPRPRPRPIWTPRP	0.0198

Sequence	shrunken log2 fold change
RRIRTRPPRLPRPRPRPGDIPRP	-0.119
RRIRERPPRLPRPRPRPLSTPRP	-0.48
RRIRMRPPRLPRPRPRPVVKPRP	0.189
RRIRNRPPRLPRPRPRPEMIPRP	-0.0601
RRIRSRPPRLPRPRPRPENSPRP	-0.0239
RRIRPRPPRLPRPRPRPPDSPRP	0.326
RRIRMRPPRLPRPRPRPYLCPRP	-0.165
RRIRQRPPRLPRPRPRPGCEPRP	0.0109
RRIRERPPRLPRPRPRPVDYPRP	0.0839
RRIRNRPPRLPRPRPRPHCGPRP	-0.225
RRIRARPPRLPRPRPRPEPSPRP	1.22
RRIRLRPPRLPRPRPRPEWWPRP	0.124
RRIRRRPPRLPRPRPRPGMCPRP	0.269
RRIRVRPPRLPRPRPRPGTKPRP	0.193
RRIRDRPPRLPRPRPRPIEKPRP	-0.0135
RRIRFRPPRLPRPRPRPVSVPRP	-0.341
RRIRFRPPRLPRPRPRPWVNPRP	-0.753
RRIRNRPPRLPRPRPRPAAFPRP	-0.0633
RRIRPRPPRLPRPRPRPGYYPRP	-0.45
RRIRHRPPRLPRPRPRPTPRPRP	0.609
RRIRVRPPRLPRPRPRPSFNPRP	-0.411
RRIRPRPPRLPRPRPRPRMCPRP	0.152
RRIRWRPPRLPRPRPRPHQQPRP	-0.0485
RRIRTRPPRLPRPRPRPVTDPRP	0.0266
RRIRMRPPRLPRPRPRPYCKPRP	-1.02

Sequence	shrunken log2 fold change
RRIRDRPPRLPRPRPRPDMFPRP	0.0667
RRIRGRPPRLPRPRPRPMKVPRP	-0.0224
RRIRGRPPRLPRPRPRPKKTPRP	0.181
RRIRMRPPRLPRPRPRPETDPRP	1.77
RRIRCRPPRLPRPRPRPDYAPRP	-0.278
RRIRFRPPRLPRPRPRPYWPPRP	-0.336
RRIRWRPPRLPRPRPRPSSYPRP	-0.123
RRIRSRPPRLPRPRPRPQFPPRP	-0.00708
RRIRHRPPRLPRPRPRPPYKPRP	-0.31
RRIRRRPPRLPRPRPRPMSMPRP	-0.17
RRIRYRPPRLPRPRPRPGIKPRP	-0.311
RRIRTRPPRLPRPRPRPTPRPRP	0.674
RRIRSRPPRLPRPRPRPEVRPRP	-0.109
RRIRFRPPRLPRPRPRPFWRPRP	0.366
RRIRMRPPRLPRPRPRPAHGPRP	0.226
RRIRVRPPRLPRPRPRPFTGPRP	-0.115
RRIRDRPPRLPRPRPRPEMAPRP	0.0683
RRIRDRPPRLPRPRPRPEISPRP	0.134
RRIRERPPRLPRPRPRPLLLPRP	-0.305
RRIRRRPPRLPRPRPRPHDCPRP	0.00386
RRIRGRPPRLPRPRPRPKPGPRP	1.07
RRIRDRPPRLPRPRPRPVEKPRP	0.0436
RRIRNRPPRLPRPRPRPYDFPRP	0.0143
RRIRPRPPRLPRPRPRPYYNPRP	-1.11
RRIRKRPPRLPRPRPRPDGEPRP	1.16
